Reference: article PMC7791067, “PLPP/CIN-mediated NF2-serine 10 dephosphorylation regulates F-actin stability and Mdm2 degradation in an activity-dependent manner” (Cell Death & Disease, 2021)

Biological target: T1, full-length recombinant human NF2, phosphorylated by PKAc (human, UniProt P35240 1-595, phosphoserine at S10 and S518 (phosphorylated by PKAc in vitro))
T1 sequence (looked up): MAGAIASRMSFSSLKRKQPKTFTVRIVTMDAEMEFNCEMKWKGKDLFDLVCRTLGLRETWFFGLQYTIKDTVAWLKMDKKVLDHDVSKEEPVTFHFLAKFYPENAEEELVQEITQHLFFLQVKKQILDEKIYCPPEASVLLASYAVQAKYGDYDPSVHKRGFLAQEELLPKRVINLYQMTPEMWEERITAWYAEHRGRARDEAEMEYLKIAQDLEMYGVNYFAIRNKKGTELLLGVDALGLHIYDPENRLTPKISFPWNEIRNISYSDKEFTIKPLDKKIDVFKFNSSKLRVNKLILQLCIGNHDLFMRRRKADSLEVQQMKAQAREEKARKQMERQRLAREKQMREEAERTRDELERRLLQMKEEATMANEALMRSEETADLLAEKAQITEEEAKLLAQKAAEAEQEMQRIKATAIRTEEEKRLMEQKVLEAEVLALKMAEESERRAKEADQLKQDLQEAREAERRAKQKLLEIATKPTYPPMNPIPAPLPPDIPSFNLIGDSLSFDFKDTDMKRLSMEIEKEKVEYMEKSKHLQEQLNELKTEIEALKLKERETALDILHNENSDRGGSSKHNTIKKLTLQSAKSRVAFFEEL
Test: cell-based or functional assay

NF2-S10 phosphorylation (western blot) in the in vitro phosphatase assay with recombinant proteins, after PKAc: ~0.63 fold of vehicle level
B1: recombinant human PLPP/CIN (enzyme, UniProt Q96GD0 1-296, looked up)
chain: MARCERLRGAALRDVLGRAQGVLFDCDGVLWNGERAVPGAPELLERLARAGKAALFVSNNSRRARPELALRFARLGFGGLRAEQLFSSALCAARLLRQRLPGPPDAPGAVFVLGGEGLRAELRAAGLRLAGDPSAGDGAAPRVRAVLVGYDEHFSFAKLREACAHLRDPECLLVATDRDPWHPLSDGSRTPGTGSLAAAVETASGRQALVVGKPSPYMFECITENFSIDPARTLMVGDRLETDILFGHRCGMTTVLTLTGVSRLEEAQAYLAAGQHDLVPHYYVESIADLTEGLED
